# Data: paper PMC10441969, “Small protein Cgl2215 enhances phenolic tolerance by promoting MytA activity in Corynebacterium glutamicum” (Stress Biology, 2022)
# B1: GST-Cgl2215 (natural protein, C. glutamicum, UniProt Q8NNI6 1-71, looked up)
# chain: MNHKLFGSKQFRKEKEMGLRIRPNEMKVWETFTLERQLEVIINADHLLLFRGEPHGTVSLSDVVASELIGI
# Target: T1, His6-MytA (C. glutamicum, UniProt P0C1D6 44-657)
# T1 sequence (looked up): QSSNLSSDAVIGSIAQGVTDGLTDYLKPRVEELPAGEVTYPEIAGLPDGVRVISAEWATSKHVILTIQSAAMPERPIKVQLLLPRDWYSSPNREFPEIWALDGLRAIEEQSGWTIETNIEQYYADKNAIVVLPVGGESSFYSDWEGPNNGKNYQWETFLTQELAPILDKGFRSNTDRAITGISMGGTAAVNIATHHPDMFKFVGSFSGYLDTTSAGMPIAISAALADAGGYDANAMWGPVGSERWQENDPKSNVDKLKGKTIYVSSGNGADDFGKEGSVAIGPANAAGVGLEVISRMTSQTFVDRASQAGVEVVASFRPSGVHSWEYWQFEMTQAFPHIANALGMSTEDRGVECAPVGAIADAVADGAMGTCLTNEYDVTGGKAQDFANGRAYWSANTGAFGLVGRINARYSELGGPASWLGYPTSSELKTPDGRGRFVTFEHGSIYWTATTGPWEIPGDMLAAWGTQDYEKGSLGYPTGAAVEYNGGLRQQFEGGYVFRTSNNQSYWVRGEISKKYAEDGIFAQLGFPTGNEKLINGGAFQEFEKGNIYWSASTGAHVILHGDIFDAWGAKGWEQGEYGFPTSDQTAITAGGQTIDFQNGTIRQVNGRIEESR
# Experiment: cell-based or functional assay
binder,measurement,value
B1,in vitro esterase activity of MytA (release of p-NP from p-NPP; MytA 4.7 μM) with GST-Cgl2215 at a 1:1 ratio of GST-Cgl2215:MytA and higher ratios (further increased),1.6 fold
